For this assay, the target named is T1, EGFR (UniProt P00533 25-645, limits assumed).
T1 construct: also called target EGFR

B1: Pro90 (hEGFR1) (other)
VHH: EVQLVESGGGLVQPGGSLRLSCAASGRTFSSYAMGWFRQAPGKEREFVVAINWSSGSTYYADSVKGRFTISRDNSKNTLYLQMNSLRAEDTAVYYCAAGYQINSGNYNFKDYEYDYWGQGTLVTVSS
Broadly, the Kd is the constant that tells how readily two partners part at equilibrium. A higher Kd goes with lower affinity. Broadly, the koff is the first-order rate constant of dissociation. The term kon denotes the rate constant with which the complex forms. The low end stands for slow association, the high end for fast association. B1: the Kd was found to be 2 nM, the koff turned out to be 0.00044 s⁻¹ and the kon came to 221000 M⁻¹ s⁻¹.

The values are drawn from patent US20240026011A1 (Takeda / Millennium, published 2024).
